Measured values: paper PMC4565748 (Molecular immunology, 2015)
Changes are numbered by the printed parent chain. Names may count otherwise.

B1: SCIN-A: full-length staphylococcal complement inhibitor SCIN-A, Staphylococcus aureus strain Mu50 (protein)
chain: STSLPTSNEYQNEKLANELKSLLDELNVNELATGSLNTYYKRTIKISGQKAMYALKSKDFKKMSEAKYQLQKIYNEIDEALKSKY
B2: SCIN-A.Q49A (protein)
chain: B1 chain with Q49A
B3: SCIN-A.R42A: full-length SCIN-A with Arg-42 alanine mutation (protein)
chain: B1 chain with R42A

target: C3b (Homo sapiens, UniProt P01024); experiment: SPR direct binding to site-specifically immobilized C3b; details: SPR kinetic analysis, 1:1 Langmuir model
Sequence (P01024 23-667 limits assumed): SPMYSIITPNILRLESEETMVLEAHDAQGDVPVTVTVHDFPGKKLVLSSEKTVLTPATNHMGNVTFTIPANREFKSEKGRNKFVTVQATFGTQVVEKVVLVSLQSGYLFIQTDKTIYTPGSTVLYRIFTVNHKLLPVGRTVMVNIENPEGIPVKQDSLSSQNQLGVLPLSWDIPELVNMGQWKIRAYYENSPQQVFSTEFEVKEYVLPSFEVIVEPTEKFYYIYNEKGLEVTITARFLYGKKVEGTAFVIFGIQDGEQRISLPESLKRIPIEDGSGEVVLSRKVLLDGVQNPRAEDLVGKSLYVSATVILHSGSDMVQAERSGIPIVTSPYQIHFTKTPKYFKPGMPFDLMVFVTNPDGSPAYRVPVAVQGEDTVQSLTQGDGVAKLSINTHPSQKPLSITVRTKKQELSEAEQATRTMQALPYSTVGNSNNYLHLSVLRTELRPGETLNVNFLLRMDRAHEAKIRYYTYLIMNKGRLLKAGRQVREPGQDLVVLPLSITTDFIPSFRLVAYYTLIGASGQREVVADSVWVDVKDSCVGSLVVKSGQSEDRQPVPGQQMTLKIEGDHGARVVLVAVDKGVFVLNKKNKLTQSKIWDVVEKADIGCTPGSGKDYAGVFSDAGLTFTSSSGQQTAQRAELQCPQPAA
Sequence (P01024 749-1663 limits assumed): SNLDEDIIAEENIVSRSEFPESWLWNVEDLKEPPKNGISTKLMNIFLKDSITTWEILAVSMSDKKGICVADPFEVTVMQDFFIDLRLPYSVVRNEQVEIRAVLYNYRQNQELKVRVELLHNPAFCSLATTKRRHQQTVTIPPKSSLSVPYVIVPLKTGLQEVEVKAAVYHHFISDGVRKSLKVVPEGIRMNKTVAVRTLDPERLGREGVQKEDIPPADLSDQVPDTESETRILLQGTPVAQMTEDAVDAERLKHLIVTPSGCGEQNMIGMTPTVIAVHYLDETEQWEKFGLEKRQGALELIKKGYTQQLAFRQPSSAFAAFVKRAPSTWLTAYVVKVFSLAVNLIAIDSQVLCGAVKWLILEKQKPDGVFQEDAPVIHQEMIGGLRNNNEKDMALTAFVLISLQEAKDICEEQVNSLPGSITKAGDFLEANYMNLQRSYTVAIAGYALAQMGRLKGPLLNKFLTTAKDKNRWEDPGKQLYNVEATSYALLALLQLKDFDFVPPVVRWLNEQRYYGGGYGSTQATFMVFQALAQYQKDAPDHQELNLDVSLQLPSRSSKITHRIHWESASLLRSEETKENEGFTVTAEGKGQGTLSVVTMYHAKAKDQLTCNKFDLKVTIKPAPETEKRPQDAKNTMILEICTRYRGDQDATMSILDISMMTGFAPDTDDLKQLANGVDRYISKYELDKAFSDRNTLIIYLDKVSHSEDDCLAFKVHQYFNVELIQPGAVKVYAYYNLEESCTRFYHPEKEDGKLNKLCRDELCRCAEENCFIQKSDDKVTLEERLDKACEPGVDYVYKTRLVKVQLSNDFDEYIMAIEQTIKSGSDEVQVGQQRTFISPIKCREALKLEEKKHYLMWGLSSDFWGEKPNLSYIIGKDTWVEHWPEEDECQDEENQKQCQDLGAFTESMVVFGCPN

Row | Molecule | ka | kd
1 | B1 | (5.5 ± 0.15) × 10^5 M^−1s^−1 | (5.1 ± 0.52) × 10^−2 s^−1
2 | B2 | (7.6 ± 2.0) × 10^5 M^−1s^−1 | (5.1 ± 0.73) × 10^−2 s^−1
3 | B3 | (8.9 ± 0.15) × 10^4 M^−1s^−1 | (5.8 ± 0.45) × 10^−1 s^−1
